B1: Pistol ribozyme (parent)
chain: GGGUCGUUGUUCCAUAAUCGCGUGGAUAUGGCACGCAAGUUUCUACCGGGCACCGUAAAUGUCCGACUGGAGCCGUUCGGGCGGCUAUAAACAGACCUCAGGCCCGAAGCGUGGCGGCACCUGCCGCCGGUGGUAAAAAAGAUCGGAAGAGCACACGUCU

Variants of: B1
Experiment: aptazyme ON/OFF ratio, guanine; higher = stronger switching; co-transcriptional cleavage with and without guanine
With U7G U8C G9A U10C U11A C12U the “aptazyme ON/OFF ratio” value was 1.18. With U7G U8A U11C C13A the “aptazyme ON/OFF ratio” value was 1.32. With U7G U8A U11C C13G the “aptazyme ON/OFF ratio” value was 1.11. With U7G U8A U11C C13U the “aptazyme ON/OFF ratio” value was 1.2. For U7G U8C G9A U10C U11C C13G, the “aptazyme ON/OFF ratio” value was 1.03. For U7G U8C G9A U10C U11C C13A, the “aptazyme ON/OFF ratio” value was 1.02. For U7G U8C G9A U10C U11C C13U, the “aptazyme ON/OFF ratio” value was 1.01. With U7G U8C G9A the “aptazyme ON/OFF ratio” value was 4.1. In the case of U7G U8A U10G U11C C13G, the “aptazyme ON/OFF ratio” value is reported as 1.16. For U7G U8A U10G U11C C13U, the “aptazyme ON/OFF ratio” value was 1.5. In the case of U7G U8A U10G U11C C13A, the “aptazyme ON/OFF ratio” value is reported as 1.21. In the case of U7G U8A U11G C12A, the “aptazyme ON/OFF ratio” value is reported as 1.45. For U7G U8A U11G C12U, the “aptazyme ON/OFF ratio” value was 1.25. With U7G U8A U11G C12G the “aptazyme ON/OFF ratio” value was 1.33. With U7G U8C G9A U10A C12A C13U the “aptazyme ON/OFF ratio” value was 1.2. For U7G U8C G9A U10A C12A C13G, the “aptazyme ON/OFF ratio” value was 1.13. For U7G U8C G9A U10A C12A C13A, the “aptazyme ON/OFF ratio” value was 1.23. In the case of U7G U8C G9A U10A U11G C12A C13U, the “aptazyme ON/OFF ratio” value is reported as 1.09. In the case of U7G U8C G9A U10A U11G C12A C13A, the “aptazyme ON/OFF ratio” value is reported as 1.06. In the case of U7G U8C G9A U10A U11G C12A C13G, the “aptazyme ON/OFF ratio” value is reported as 1.12. For U7G U8A U11G C12U C13U, the “aptazyme ON/OFF ratio” value was 1.17. In the case of U7G U8A U11G C12U C13G, the “aptazyme ON/OFF ratio” value is reported as 1.26. In the case of U7G U8A U11G C12U C13A, the “aptazyme ON/OFF ratio” value is reported as 1.34. In the case of U7G U8A U10C U11C C12A C13U, the “aptazyme ON/OFF ratio” value is reported as 1.23. With U7G U8A U10C U11C C12A C13A the “aptazyme ON/OFF ratio” value was 1.2. In the case of U7G U8A U10C U11C C12A C13G, the “aptazyme ON/OFF ratio” value is reported as 1.16. In the case of U7G U8C G9A C12U, the “aptazyme ON/OFF ratio” value is reported as 1.07. For U7G U8C G9A C12A, the “aptazyme ON/OFF ratio” value was 1.06. In the case of U7G U8C G9A C12G, the “aptazyme ON/OFF ratio” value is reported as 1.07. For U7G U8C G9A U10A U11A C13G, the “aptazyme ON/OFF ratio” value was 1.04. In the case of U7G U8C G9A U10A U11A C13A, the “aptazyme ON/OFF ratio” value is reported as 1.09. For U7G U8C G9A U10A U11A C13U, the “aptazyme ON/OFF ratio” value was 1.21. For U7G U8A U11C C12G C13A, the “aptazyme ON/OFF ratio” value was 1.22. For U7G U8A U11C C12G C13U, the “aptazyme ON/OFF ratio” value was 1.32. In the case of U7G U8A U11C C12G C13G, the “aptazyme ON/OFF ratio” value is reported as 1.2. With U7G U8A U10G U11A C12A the “aptazyme ON/OFF ratio” value was 1.16. With U7G U8A U10G U11A C12G the “aptazyme ON/OFF ratio” value was 1.43. For U7G U8A U10G U11A C12U, the “aptazyme ON/OFF ratio” value was 1.23. For U7G U8A U10G C13G, the “aptazyme ON/OFF ratio” value was 1.32. In the case of U7G U8A U10G C13A, the “aptazyme ON/OFF ratio” value is reported as 1.3. For U7G U8A U10G C13U, the “aptazyme ON/OFF ratio” value was 1.29. With U7G U8C G9A U10A C12U C13A the “aptazyme ON/OFF ratio” value was 1.15. For U7G U8C G9A U10A C12U C13G, the “aptazyme ON/OFF ratio” value was 1.13. In the case of U7G U8C G9A U10A C12U C13U, the “aptazyme ON/OFF ratio” value is reported as 1.05. In the case of U7G U8A U10C C12A C13U, the “aptazyme ON/OFF ratio” value is reported as 1.34. With U7G U8A U10C U11C C12U C13G the “aptazyme ON/OFF ratio” value was 1.25. With U7G U8A U10C U11C C12U C13U the “aptazyme ON/OFF ratio” value was 1.13. With U7G U8A U10C U11C C12U C13A the “aptazyme ON/OFF ratio” value was 1.14. In the case of U7G U8A U11G C12G C13A, the “aptazyme ON/OFF ratio” value is reported as 1.16. With U7G U8A U11G C12G C13G the “aptazyme ON/OFF ratio” value was 1.32. With U7G U8A U11G C12G C13U the “aptazyme ON/OFF ratio” value was 1.4. With U7G U8A U11A C12G the “aptazyme ON/OFF ratio” value was 1.22. In the case of U7G U8A U11A C12A, the “aptazyme ON/OFF ratio” value is reported as 1.25. In the case of U7G U8A U11A C12U, the “aptazyme ON/OFF ratio” value is reported as 1.43. With U7G U8A U10C C12U the “aptazyme ON/OFF ratio” value was 2.18. In the case of U7G U8A U10C C12G, the “aptazyme ON/OFF ratio” value is reported as 1.46. For U7G U8C C13A, the “aptazyme ON/OFF ratio” value was 1.21. In the case of U7G U8C C13U, the “aptazyme ON/OFF ratio” value is reported as 1.46. In the case of U7G U8C C13G, the “aptazyme ON/OFF ratio” value is reported as 1.07. With U7G U8A U10C C12G C13G the “aptazyme ON/OFF ratio” value was 1.17. With U7G U8A U10C C12G C13U the “aptazyme ON/OFF ratio” value was 1.31. For U7G U8A U10C C12G C13A, the “aptazyme ON/OFF ratio” value was 1.39. With U7G U8A U11G C13A the “aptazyme ON/OFF ratio” value was 1.2. With U7G U8A U11G C13G the “aptazyme ON/OFF ratio” value was 1.15. With U7G U8A U11G C13U the “aptazyme ON/OFF ratio” value was 1.21. For U7G U8C G9A U10A U11C C12U C13U, the “aptazyme ON/OFF ratio” value was 1.16. For U7G U8C G9A U10A U11C C12U C13A, the “aptazyme ON/OFF ratio” value was 1.14. For U7G U8C G9A U10A U11C C12U C13G, the “aptazyme ON/OFF ratio” value was 1.13. In the case of U7G U8A U10C C12U C13G, the “aptazyme ON/OFF ratio” value is reported as 1.26. With U7G U8A U10C C12U C13A the “aptazyme ON/OFF ratio” value was 1.24. In the case of U7G U8A U10C C12U C13U, the “aptazyme ON/OFF ratio” value is reported as 1.32. In the case of U7G U8C G9A U10A C12G C13G, the “aptazyme ON/OFF ratio” value is reported as 1.08. In the case of U7G U8C G9A U10A C12G C13A, the “aptazyme ON/OFF ratio” value is reported as 1.07. With U7G U8C G9A U10A C12G C13U the “aptazyme ON/OFF ratio” value was 1.15. With U7G U8A U10C U11G C12A C13A the “aptazyme ON/OFF ratio” value was 1.19. For U7G U8A U10C U11G C12A C13U, the “aptazyme ON/OFF ratio” value was 1.37. For U7G U8A U10C U11G C12A C13G, the “aptazyme ON/OFF ratio” value was 1.19. In the case of U7G U8C G9A U10G C12A, the “aptazyme ON/OFF ratio” value is reported as 1.18. For U7G U8C C12A C13U, the “aptazyme ON/OFF ratio” value was 1.08. In the case of U7G U8C C12A C13A, the “aptazyme ON/OFF ratio” value is reported as 1.13. In the case of U7G U8C C12A C13G, the “aptazyme ON/OFF ratio” value is reported as 1.1. With U7G U8A U10G U11G C12A C13U the “aptazyme ON/OFF ratio” value was 1.73. With U7G U8A U10G U11G C12A C13A the “aptazyme ON/OFF ratio” value was 1.16. In the case of U7G U8A U10G U11G C12A C13G, the “aptazyme ON/OFF ratio” value is reported as 1.38.

From the RNAGym collection of RNA variant scans (doi:10.1021/acssynbio.7b00057)
